The target of assay [1] is Gβγ (Ste4p/Ste18p) in yeast cells (S. cerevisiae) (UniProt P18852). Kind of assay: cell-based or functional assay.
The target of the next assay is T1, 3×myc-Cdc24-m1 mutant (S. cerevisiae, UniProt P11433 1-854).
T1 sequence (looked up): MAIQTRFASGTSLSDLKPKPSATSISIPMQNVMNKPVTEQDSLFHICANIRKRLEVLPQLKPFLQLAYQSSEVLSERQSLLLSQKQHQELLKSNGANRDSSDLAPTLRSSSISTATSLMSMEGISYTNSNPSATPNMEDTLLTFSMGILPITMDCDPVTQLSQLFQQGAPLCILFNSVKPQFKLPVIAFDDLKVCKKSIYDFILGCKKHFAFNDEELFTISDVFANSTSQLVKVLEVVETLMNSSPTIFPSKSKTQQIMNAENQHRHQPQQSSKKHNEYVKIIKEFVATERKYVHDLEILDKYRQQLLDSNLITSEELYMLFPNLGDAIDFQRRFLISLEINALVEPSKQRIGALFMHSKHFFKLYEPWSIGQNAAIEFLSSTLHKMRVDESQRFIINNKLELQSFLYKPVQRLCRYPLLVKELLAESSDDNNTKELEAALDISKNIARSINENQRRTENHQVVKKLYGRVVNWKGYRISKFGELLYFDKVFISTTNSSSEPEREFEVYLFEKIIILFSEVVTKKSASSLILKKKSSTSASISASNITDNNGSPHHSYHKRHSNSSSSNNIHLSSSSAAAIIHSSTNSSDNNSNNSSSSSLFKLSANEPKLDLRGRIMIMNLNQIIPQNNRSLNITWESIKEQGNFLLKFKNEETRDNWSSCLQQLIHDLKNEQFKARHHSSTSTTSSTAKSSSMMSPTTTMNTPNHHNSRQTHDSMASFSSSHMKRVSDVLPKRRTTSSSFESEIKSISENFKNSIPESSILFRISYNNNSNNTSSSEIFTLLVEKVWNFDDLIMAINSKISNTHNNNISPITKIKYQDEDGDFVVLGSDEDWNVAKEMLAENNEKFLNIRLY
Kind of assay: co-precipitation with Far1-protein A on IgG-Sepharose from yeast extracts. An excerpt:
Although cdc24-m and far1-s mutants result in similar defects in growth orientation during mating, we set out to determine if these genes function in the same orientation process. […] Cdc24 and Far1 were epitope tagged in order to determine whether these proteins interact in yeast cells. The chronosomal copy of Cdc24 was replaced with a 3×myc tagged Cdc24 and the chromosomal copy of Far1 was replaced with Far1 protein A fusion. Both of these fusion proteins are fully functional. Isolation of Far1-protein A from yeast extracts using IgG-Sepharose co-precipitated 3×myc-Cdc24. In contrast, the 3×myc-Cdc24-m1 mutant was defective in binding Far1 in similar imnmunoprecipitation assays.

Assay [2] addresses T2, Cdc24p, two-hybrid construct (limits not stated) (S. cerevisiae, UniProt P11433 1-288).
T2 construct: not shown: GAL4 two-hybrid fusion partner
T2 sequence (looked up): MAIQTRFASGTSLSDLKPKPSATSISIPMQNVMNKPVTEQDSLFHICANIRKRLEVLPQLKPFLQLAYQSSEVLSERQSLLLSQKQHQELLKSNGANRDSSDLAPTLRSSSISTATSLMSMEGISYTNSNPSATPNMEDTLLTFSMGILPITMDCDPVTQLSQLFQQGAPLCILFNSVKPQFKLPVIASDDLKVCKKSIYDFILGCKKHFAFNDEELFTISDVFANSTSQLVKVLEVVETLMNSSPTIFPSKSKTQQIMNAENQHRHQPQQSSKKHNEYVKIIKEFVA
Nature of the assay: yeast two-hybrid screen.

The target of another assay is T3, MBP-Far1 (S. cerevisiae, UniProt P21268 1-830, limits assumed).
T3 construct: Expressed and purified from E. coli
T3 sequence (looked up): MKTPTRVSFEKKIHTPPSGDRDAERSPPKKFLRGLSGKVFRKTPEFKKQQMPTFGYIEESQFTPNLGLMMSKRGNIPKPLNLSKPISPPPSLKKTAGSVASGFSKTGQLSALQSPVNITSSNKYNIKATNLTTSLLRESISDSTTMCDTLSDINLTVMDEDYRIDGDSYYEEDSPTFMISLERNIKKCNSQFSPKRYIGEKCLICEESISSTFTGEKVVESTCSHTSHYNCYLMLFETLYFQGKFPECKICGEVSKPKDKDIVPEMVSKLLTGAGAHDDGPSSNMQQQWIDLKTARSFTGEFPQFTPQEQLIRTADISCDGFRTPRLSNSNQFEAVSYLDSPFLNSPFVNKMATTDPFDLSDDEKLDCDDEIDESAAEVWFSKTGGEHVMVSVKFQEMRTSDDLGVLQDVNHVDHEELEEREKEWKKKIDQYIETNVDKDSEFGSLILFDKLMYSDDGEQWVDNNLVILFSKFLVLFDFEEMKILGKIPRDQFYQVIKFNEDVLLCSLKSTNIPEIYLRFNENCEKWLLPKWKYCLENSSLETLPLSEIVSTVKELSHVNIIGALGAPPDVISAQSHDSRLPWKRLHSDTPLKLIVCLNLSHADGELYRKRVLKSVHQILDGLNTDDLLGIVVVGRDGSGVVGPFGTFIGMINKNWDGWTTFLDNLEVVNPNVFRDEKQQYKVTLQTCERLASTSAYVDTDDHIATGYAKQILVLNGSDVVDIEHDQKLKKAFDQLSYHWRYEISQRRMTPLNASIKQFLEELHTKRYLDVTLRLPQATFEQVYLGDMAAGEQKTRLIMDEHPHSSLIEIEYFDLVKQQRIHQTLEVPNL
Nature of the assay: in vitro binding of fusion proteins purified from E. coli.

The target of a further assay is T4, MBP-Far1 H7 (S. cerevisiae, UniProt P21268 1-755).
T4 sequence (looked up): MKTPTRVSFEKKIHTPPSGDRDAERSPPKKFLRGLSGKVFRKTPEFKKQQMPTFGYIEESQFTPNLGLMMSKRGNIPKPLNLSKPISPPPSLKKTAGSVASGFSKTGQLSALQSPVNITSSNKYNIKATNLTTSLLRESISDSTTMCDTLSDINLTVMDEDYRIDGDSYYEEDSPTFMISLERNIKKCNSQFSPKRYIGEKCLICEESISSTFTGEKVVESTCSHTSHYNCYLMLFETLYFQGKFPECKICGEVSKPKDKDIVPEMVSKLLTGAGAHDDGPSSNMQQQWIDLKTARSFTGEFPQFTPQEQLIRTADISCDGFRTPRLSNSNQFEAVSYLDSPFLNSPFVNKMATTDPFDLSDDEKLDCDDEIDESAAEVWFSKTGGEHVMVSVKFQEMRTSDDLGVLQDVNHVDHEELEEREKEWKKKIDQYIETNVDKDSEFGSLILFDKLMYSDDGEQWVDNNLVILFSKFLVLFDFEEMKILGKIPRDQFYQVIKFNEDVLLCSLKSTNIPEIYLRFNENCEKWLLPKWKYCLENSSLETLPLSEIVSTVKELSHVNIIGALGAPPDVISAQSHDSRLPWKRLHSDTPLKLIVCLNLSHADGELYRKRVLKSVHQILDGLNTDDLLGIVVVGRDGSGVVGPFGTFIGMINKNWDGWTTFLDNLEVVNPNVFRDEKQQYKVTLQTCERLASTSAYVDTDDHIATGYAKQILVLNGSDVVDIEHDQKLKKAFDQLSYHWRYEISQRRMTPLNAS
Nature of the assay: in vitro binding of purified MBP-Far1 and GST-Cdc24 fusions.

Gβγ (Ste4p/Ste18p) in yeast cells (S. cerevisiae), sequence (P18852 1-107): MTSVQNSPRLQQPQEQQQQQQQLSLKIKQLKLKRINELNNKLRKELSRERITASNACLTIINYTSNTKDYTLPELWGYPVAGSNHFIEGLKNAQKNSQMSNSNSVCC

“Cdc24p in CDC24 (wild type) yeast cells (from UniProt P11433 1-854)” came in with an average cosine of the angle of cell projection relative to the micropipet (orientation in a pheromone gradient) in assay [1] of 0.52.

B1: Far1 protein A fusion (other, S. cerevisiae, UniProt P21268 1-830, looked up)
chain: MKTPTRVSFEKKIHTPPSGDRDAERSPPKKFLRGLSGKVFRKTPEFKKQQMPTFGYIEESQFTPNLGLMMSKRGNIPKPLNLSKPISPPPSLKKTAGSVASGFSKTGQLSALQSPVNITSSNKYNIKATNLTTSLLRESISDSTTMCDTLSDINLTVMDEDYRIDGDSYYEEDSPTFMISLERNIKKCNSQFSPKRYIGEKCLICEESISSTFTGEKVVESTCSHTSHYNCYLMLFETLYFQGKFPECKICGEVSKPKDKDIVPEMVSKLLTGAGAHDDGPSSNMQQQWIDLKTARSFTGEFPQFTPQEQLIRTADISCDGFRTPRLSNSNQFEAVSYLDSPFLNSPFVNKMATTDPFDLSDDEKLDCDDEIDESAAEVWFSKTGGEHVMVSVKFQEMRTSDDLGVLQDVNHVDHEELEEREKEWKKKIDQYIETNVDKDSEFGSLILFDKLMYSDDGEQWVDNNLVILFSKFLVLFDFEEMKILGKIPRDQFYQVIKFNEDVLLCSLKSTNIPEIYLRFNENCEKWLLPKWKYCLENSSLETLPLSEIVSTVKELSHVNIIGALGAPPDVISAQSHDSRLPWKRLHSDTPLKLIVCLNLSHADGELYRKRVLKSVHQILDGLNTDDLLGIVVVGRDGSGVVGPFGTFIGMINKNWDGWTTFLDNLEVVNPNVFRDEKQQYKVTLQTCERLASTSAYVDTDDHIATGYAKQILVLNGSDVVDIEHDQKLKKAFDQLSYHWRYEISQRRMTPLNASIKQFLEELHTKRYLDVTLRLPQATFEQVYLGDMAAGEQKTRLIMDEHPHSSLIEIEYFDLVKQQRIHQTLEVPNL
notes: Isolated from yeast extracts on IgG-Sepharose; not shown: protein A moiety
B1: in the assay with 3×myc-Cdc24-m1 mutant, the binding result is “no binding”.

B2: Ste4p mutant (SEQ. I.D. No: 13) (other)
chain: MAHQMDSITYSNNVTQQYIQPQSLQDISAVEEEIQNKIEAARQESKQLHAQINKAKHKIQDASLFQMANKVTSLTKNKINLKPNIVLKGHNNKISDFRWSRDSKRILSASQDGFMLIWDSASGLKQNAIPLDSQWVLSCAISPSSTLVASAGLNNNCTIYRVSKENRVAQNVASIFKGHTCYISDIEFTDNAHILTASGDMTCALWDIPKAKRVRGYSDHLGDVLALAIPEEPNLENSSNTFASCGSDGYTYIWDSRSPSAVQSFYVNDSDINALRFFKDGMSIVAGSDNGAINMYDLRSDCSIATFSLFRGYEERTPTPTYMAANMEYNTAQSPQTLKSTSSSYLDNQGVVSLDFSASGRLMYSCYTDIGCVVWDVLKGEIVGKLEGHGGRVTGVRSSPDGLAVCTGSWDSTMKIWSPGYQ
notes: Isolated in a two-hybrid screen; also called mutant G protein β subunit; I.D. No: 12 (nucleotide); not shown: GAL4 two-hybrid fusion partner
On to B2, for which, in assay [2], the binding result is “no binding”.

B3: Ste4p mutant (SEQ. I.D. No: 15) (other)
chain: MAHQMDSITYSNNVTQQYIQPQSLQDISAVEEEIQNKIEAARQESKQLHAQINKAKHKIQDASLFQMANKVTSLTKNKINLKPNIVLKGHNNKISDFRWSRDSKRILSASQDGFMLIWDSASGLKQNAIPLDSQWVLSCAISPSSTLVASAGLNNNCTIYRVSKENRVAQNVASIFKGHTCYISDIEFTDNAHILTASGDMTCALWDIPKAKRVREYSDHLGDVLALAIPEEPNLENSSNTFASCGSDGYTYIWDSRSPSAVQSFYVNDSDINALRFFKDGMSIVAGSDNGAINMYDLRSDCSIATFSLFRGYEERTPTPTYMAANMEYNTAQSPQTLKSTSSSYLDNQGAVSLDFSASGRLMYSCYTDIGCVVWDVLKGEIVGKLEGHGGRVTGVRSSPDGLAVCTGSWDSTMKIWSPGYQ
notes: Isolated in a two-hybrid screen; also called mutant G protein β subunit; I.D. No: 14 (nucleotide); not shown: GAL4 two-hybrid fusion partner
On to B3, for which the binding result in assay [2] is “no binding”.

B4: GSTCdc24p (1-472 aa) (other, S. cerevisiae, UniProt P11433 1-472, looked up)
chain: MAIQTRFASGTSLSDLKPKPSATSISIPMQNVMNKPVTEQDSLFHICANIRKRLEVLPQLKPFLQLAYQSSEVLSERQSLLLSQKQHQELLKSNGANRDSSDLAPTLRSSSISTATSLMSMEGISYTNSNPSATPNMEDTLLTFSMGILPITMDCDPVTQLSQLFQQGAPLCILFNSVKPQFKLPVIASDDLKVCKKSIYDFILGCKKHFAFNDEELFTISDVFANSTSQLVKVLEVVETLMNSSPTIFPSKSKTQQIMNAENQHRHQPQQSSKKHNEYVKIIKEFVATERKYVHDLEILDKYRQQLLDSNLITSEELYMLFPNLGDAIDFQRRFLISLEINALVEPSKQRIGALFMHSKHFFKLYEPWSIGQNAAIEFLSSTLHKMRVDESQRFIINNKLELQSFLYKPVQRLCRYPLLVKELLAESSDDNNTKELEAALDISKNIARSINENQRRTENHQVVKKLYGRVV
notes: range 1-472; Expressed in E. coli; also called GSTCdc24 fusion; GST Cdc24 fusion (residues 1-472); not shown: glutathione-S-transferase as encoded by pGEX-2T (Pharmacia)
Consider B4, for which the values for the binding result with MBP-Far1 and with MBP-Far1 H7 were “binds” and “no binding”, respectively.

The record behind these values is patent US20030175712A1 (published 2003).
